Results from patent US20250199010A1 (ALAMAR BIOSCIENCES, published 2025).
Where two headings read alike, the source gives them in different places.

Experiments:
9G8-GS-7D12 = 9G8-GS-7D12 (llama); assay: SPR (Biacore), 25 °C
7D12-(GGGS)4-9G8 [1] = target: 7D12-(GGGS)4-9G8 (llama); assay: SPR (Biacore), 25 °C
[2] = target: 7D12-FAS-(AP)11-VGG-[-AA]9G8 (llama); assay: SPR, murine EGFR-Fc
[3] = target: 7D12-ITA-(E4K4)4-IGG-[-AA]9G8 (llama); assay: SPR, murine EGFR-Fc
[4] = target: 7D12-(E4K4)5-VSG-[-AA]9G8; assay: SPR, murine EGFR-Fc
7D12-(GGGS)4-9G8 [5] = target: 7D12-(GGGS)4-9G8 (llama); assay: SPR (Biacore), 25 °C; remark: listed apart in the source

Kd (9G8-GS-7D12): 58 nM
Kd (7D12-(GGGS)4-9G8 [1]): 160 nM
Kd [2]: 0.6 nM
Kd [3]: 0.7 nM
Kd [4]: 2.6 nM
Kd (7D12-(GGGS)4-9G8 [5]): 160 nM
B1: Mouse EGFR-Fc (Fc fusion, UniProt Q01279 25-647, looked up)
chain: LEEKKVCQGTSNRLTQLGTFEDHFLSLQRMYNNCEVVLGNLEITYVQRNYDLSFLKTIQEVAGYVLIALNTVERIPLENLQIIRGNALYENTYALAILSNYGTNRTGLRELPMRNLQEILIGAVRFSNNPILCNMDTIQWRDIVQNVFMSNMSMDLQSHPSSCPKCDPSCPNGSCWGGGEENCQKLTKIICAQQCSHRCRGRSPSDCCHNQCAAGCTGPRESDCLVCQKFQDEATCKDTCPPLMLYNPTTYQMDVNPEGKYSFGATCVKKCPRNYVVTDHGSCVRACGPDYYEVEEDGIRKCKKCDGPCRKVCNGIGIGEFKDTLSINATNIKHFKYCTAISGDLHILPVAFKGDSFTRTPPLDPRELEILKTVKEITGFLLIQAWPDNWTDLHAFENLEIIRGRTKQHGQFSLAVVGLNITSLGLRSLKEISDGDVIISGNRNLCYANTINWKKLFGTPNQKTKIMNNRAEKDCKAVNHVCNPLCSSEGCWGPEPRDCVSCQNVSRGRECVEKCNILEGEPREFVENSECIQCHPECLPQAMNITCTGRGPDNCIQCAHYIDGPHCVKTCPAGIMGENNTLVWKYADANNVCHLCHANCTYGCAGPGLQGCEVWPSGPKIPS
notes: also called muEGFR; murine EGFR-Fc; not shown: Fc part, not described
